Laboratory results published in US20260097113A1 (Pfizer, published 2026).

How the values were obtained:
[1] = target: RSV A + RSV B bivalent composition (RSV subtype A; RSV subtype B); experiment: AM14 Fab titration by SEC; Target cycle; 3 M 25°C
[2] = target: RSV A + RSV B bivalent composition (RSV subtype A; RSV subtype B); experiment: AM14 Fab titration by SEC; Target cycle; 3 M 40°C
[3] = target: RSV A + RSV B bivalent composition (RSV subtype A; RSV subtype B); experiment: AM14 Fab titration by SEC; High-Slow 1 cycle; 8 M 25°C
[4] = target: RSV A + RSV B bivalent composition (RSV subtype A; RSV subtype B); experiment: AM14 Fab titration by SEC; High-Slow 1 cycle; 3 M 25°C
[5] = target: RSV A + RSV B bivalent composition (RSV subtype A; RSV subtype B); experiment: AM14 Fab titration by SEC; High-Slow 1 cycle; 1 M 25°C
[6] = target: RSV A + RSV B bivalent composition (RSV subtype A; RSV subtype B); experiment: AM14 Fab titration by SEC; Target cycle; 8 M 2-8°C
[7] = target: T1, RSV F protein of subtype A comprising a polypeptide of SEQ ID NO: 1 and a polypeptide of SEQ ID NO: 2 (RSV subtype A, UniProt P11209 137-513; P03420 26-109); experiment: AM14 ELISA; F4 (pH 6, 50 mM NaCl, 4.5% sucrose); 2 wk 5°C
T1 construct: Stabilized prefusion F trimer made of three F2-F1 heterodimers; Produced recombinantly in CHO cells; also called RSV A; RSVA
T1 chain 1: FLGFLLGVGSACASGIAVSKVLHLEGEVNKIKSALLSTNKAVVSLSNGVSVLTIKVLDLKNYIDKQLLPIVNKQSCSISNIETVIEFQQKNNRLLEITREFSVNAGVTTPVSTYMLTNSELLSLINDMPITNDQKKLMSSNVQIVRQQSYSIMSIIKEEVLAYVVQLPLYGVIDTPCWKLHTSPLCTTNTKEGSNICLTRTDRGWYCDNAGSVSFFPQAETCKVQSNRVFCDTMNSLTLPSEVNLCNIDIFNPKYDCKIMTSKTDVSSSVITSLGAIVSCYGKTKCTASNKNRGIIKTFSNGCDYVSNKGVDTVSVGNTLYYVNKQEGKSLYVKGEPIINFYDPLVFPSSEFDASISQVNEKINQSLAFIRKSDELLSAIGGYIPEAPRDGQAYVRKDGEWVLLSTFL
T1 chain 2: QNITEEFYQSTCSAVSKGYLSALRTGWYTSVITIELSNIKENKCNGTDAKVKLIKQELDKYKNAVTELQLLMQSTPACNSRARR

[8] = target: T1, RSV F protein of subtype A comprising a …; experiment: AM14 ELISA; F16 (pH 6, 0 mM NaCl, 0% sucrose); 2 wk 5°C
[9] = target: T1, RSV F protein of subtype A comprising a …; experiment: AM14 ELISA; F3 (pH 8, 0 mM NaCl, 9% sucrose); T0
[10] = target: T1, RSV F protein of subtype A comprising a …; experiment: AM14 ELISA; F12 (pH 8, 100 mM NaCl, 9.0% sucrose); T0
[11] = target: T1, RSV F protein of subtype A comprising a …; experiment: AM14 ELISA; F19 (pH 7, 50 mM NaCl, 3% trehalose + 3% mannitol); 1 wk 25°C
[12] = target: T1, RSV F protein of subtype A comprising a …; experiment: AM14 ELISA; F12 (pH 8, 100 mM NaCl, 9.0% sucrose); 2 wk 25°C
[13] = target: T1, RSV F protein of subtype A comprising a …; experiment: AM14 ELISA; F5 (pH 6, 100 mM NaCl, 9.0% sucrose); 1 wk 25°C
[14] = target: T1, RSV F protein of subtype A comprising a …; experiment: AM14 ELISA; F1 (pH 8, 100 mM NaCl, 0% sucrose); 1 wk 25°C
[15] = target: T1, RSV F protein of subtype A comprising a …; experiment: AM14 ELISA; F4 (pH 6, 50 mM NaCl, 4.5% sucrose); T0
[16] = target: T1, RSV F protein of subtype A comprising a …; experiment: AM14 ELISA; F13 (pH 7, 100 mM NaCl, 4.5% sucrose); 2 wk 5°C
[17] = target: T1, RSV F protein of subtype A comprising a …; experiment: AM14 ELISA; F8 (pH 7, 50 mM NaCl, 0% sucrose); T0

AM14 Fab
Prefusion Content (%) [1]: 71% | Prefusion Content (%) [2]: 72% | Prefusion Content (%) [3]: 63% | Prefusion Content (%) [4]: 53% | Prefusion Content (%) [5]: 51% | Prefusion Content (%) [6]: 73%

B1: AM14 (trimeric prefusion specific antibody of the AM14 ELISA) (antibody, V domains shown)
VH: EVQLVESGGGVVQPGRSLRLSCAASGFSFSHYAMHWVRQAPGKGLEWVAVISYDGENTYYADSVKGRFSISRDNSKNTVSLQMNSLRPEDTALYYCARDRIVDDYYYYGMDVWGQGATVTVSS
VL: DIQMTQSPSSLSASVGDRVTITCQASQDIKKYLNWYHQKPGKVPELLMHDASNLETGVPSRFSGRGSGTDFTLTISSLQPEDIGTYYCQQYDNLPPLTFGGGTKVEIKR
notes: Antibody as used in the AM14 ELISA, detected with an HRP-labeled secondary antibody
AM14 prefusion content (%), relative to standard [7]: 62% | AM14 prefusion content (%), relative to standard [8]: 67% | AM14 prefusion content (%), relative to standard [9]: 95% | AM14 prefusion content (%), relative to standard [10]: 100% | AM14 prefusion content (%), relative to standard [11]: 75% | AM14 prefusion content (%), relative to standard [12]: 55% | AM14 prefusion content (%), relative to standard [13]: 97% | AM14 prefusion content (%), relative to standard [14]: 112% | AM14 prefusion content (%), relative to standard [15]: 57% | AM14 prefusion content (%), relative to standard [16]: 75% | AM14 prefusion content (%), relative to standard [17]: 100%
